Here are results for 3 compounds from paper PMC6497155 (ACS infectious diseases, 2018).

Series [1] in a line: Thermal stability of ClpP homotetradecamers. Type of series: physicochemical.
Series [2] is described as follows: Storage stability and concentration limit of purified ClpP. Format: physicochemical. As to conditions: purified protein in activity buffer.
Another series relates to ClpX. As to conditions: 200 nM ClpP, 50 nM ClpX; relative to ClpX alone.
Another series relates to ClpP2. Nature of the series: Proteolytic activity of ClpP2 with DTT. Type of series: biochemical, C. difficile. As to conditions: varying concentrations of DTT; incubation times exceeding 48 h.

For orientation: Tm means the temperature at which the thermal transition is half complete.

As for “ClpP2: recombinant C. difficile ClpP2 (YP_001089868.1), homotetradecamer”, in series [1] (no ADEP, SYPRO Orange, activity buffer (25 mM HEPES, 100 mM KCl, 5 mM MgCl2, 1 mM DTT, 10% glycerol), 25 to 85 °C in 0.3 °C increments, triplicate, Boltzmann fit), the Tm turned out to be 46.5 °C. For the same compound, the “Effect of reduced conditions on thermal stability” value in series [1] (reduced conditions) was “no significant effect on the thermal stability”. Further, the “Concentration above which less stability is exhibited” value in series [2] is listed as “exceeding 12.5 mg/mL”. Besides, the “Rate reduction of ClpX ATP hydrolysis” value with ClpX is ~ 7%.
Consider “ClpP1: recombinant C. difficile ClpP1 (YP_001089821.1), homotetradecamer, prepared from ΔEcClpP E. coli unless otherwise noted”, for which the “Concentration reached without any sign of precipitation” value in series [2] is ~ 60 mg/mL. Besides, in the series on ClpX, the “Rate reduction of ClpX ATP hydrolysis” value was ~ 18%.
Turning to `O[C@@H](CS)[C@@H](O)CS` (racemic) [dithiothreitol (DTT), dithiothreitol], the “Stimulation of ClpP2 proteolytic activity by DTT” value in the series on ClpP2 was “failed to stimulate proteolytic activity”.
